Results published in patent US10745439B2, “Kinase substrates and methods of use thereof” (REGENTS OF THE UNIVERSITY OF MINNESOTA, priority 2017, dated 2020).
Ends that are not written are not given here. * marks the point of attachment. Biotin = O=C1N[C@H]2[C@H](CS[C@H]2CCCCC(=O)*)N1

What was measured:
[1] = target: T1, LKB1 (Homo sapiens, UniProt Q15831); assay: in vitro kinase assay screen with LKB1 and candidate biosensor peptides (LC ESI-MS readout); type: biochemical; settings: 15 nM kinase, 20 μM peptide, 100 μM ATP, 37° C., 3 hr reaction
T1 sequence (Q15831 1-433): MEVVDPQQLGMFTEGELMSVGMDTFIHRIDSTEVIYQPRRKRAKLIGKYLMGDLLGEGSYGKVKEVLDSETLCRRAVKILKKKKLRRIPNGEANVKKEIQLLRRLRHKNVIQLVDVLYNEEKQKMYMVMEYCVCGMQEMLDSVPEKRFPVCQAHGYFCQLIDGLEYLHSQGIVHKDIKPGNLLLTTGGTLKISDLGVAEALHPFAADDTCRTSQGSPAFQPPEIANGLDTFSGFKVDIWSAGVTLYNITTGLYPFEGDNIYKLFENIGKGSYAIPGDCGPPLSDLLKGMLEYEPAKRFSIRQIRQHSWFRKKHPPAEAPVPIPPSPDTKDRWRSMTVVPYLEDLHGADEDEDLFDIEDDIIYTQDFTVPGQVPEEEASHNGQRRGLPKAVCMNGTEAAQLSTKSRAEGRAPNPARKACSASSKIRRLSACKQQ
T1 sequence (Q7RTN6 1-431 partner): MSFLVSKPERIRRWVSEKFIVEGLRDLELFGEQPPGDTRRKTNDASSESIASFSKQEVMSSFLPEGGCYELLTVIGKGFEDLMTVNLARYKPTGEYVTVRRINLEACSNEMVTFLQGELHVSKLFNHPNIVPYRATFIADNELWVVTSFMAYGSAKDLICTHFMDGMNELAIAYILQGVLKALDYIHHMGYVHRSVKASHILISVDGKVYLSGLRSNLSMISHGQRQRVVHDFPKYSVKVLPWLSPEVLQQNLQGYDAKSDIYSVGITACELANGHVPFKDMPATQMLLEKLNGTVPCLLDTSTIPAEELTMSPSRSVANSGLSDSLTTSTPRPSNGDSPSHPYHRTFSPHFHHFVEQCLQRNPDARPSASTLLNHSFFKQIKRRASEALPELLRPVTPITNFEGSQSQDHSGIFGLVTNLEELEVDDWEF
T1 sequence (Q9Y376 1-341 partner): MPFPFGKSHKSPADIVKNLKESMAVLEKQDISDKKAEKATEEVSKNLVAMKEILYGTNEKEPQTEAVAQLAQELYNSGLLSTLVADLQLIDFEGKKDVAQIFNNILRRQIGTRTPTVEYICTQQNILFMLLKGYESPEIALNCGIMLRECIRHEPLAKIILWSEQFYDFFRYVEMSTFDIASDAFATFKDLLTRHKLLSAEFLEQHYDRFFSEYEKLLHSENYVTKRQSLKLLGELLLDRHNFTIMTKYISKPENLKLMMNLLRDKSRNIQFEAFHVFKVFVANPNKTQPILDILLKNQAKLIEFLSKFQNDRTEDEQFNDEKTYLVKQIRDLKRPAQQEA
Experimental: FIGS. 8A-B. FIG. 8A. Results from an initial kinase assay with LKB1 testing candidate biosensor peptide substrate WHLQTWCGYGGKbiotinGG (SEQ ID NO:12). The data shown is the abundance of the peptide and its phosphorylated version (SEQ ID NO:14) after incubation with the kinase for 3 hr. FIG. 8B. Zoomed in version of the spectrum showing relative abundance.
The in vitro kinase assay screen was performed with LKB1 and the candidate biosensor sequence (WHLQTWCGYGGKbiotinGG (SEQ ID NO:12)). First the kinase, (15 nM final concentration), was pre-incubated in kinase reaction buffer (10 mM HEPES, 10 mM MgCl2, 0.125 ng/μL BSA, 100 μM adenosine triphosphate (ATP), pH 7.5) for 15 minutes. Then the substrate peptide, (20 μM final concentration), was added and the reaction was kept at 37° C. The reaction was quenched with 6 M urea and then the sample was desalted with C18 zip tips according to the manufacturer's protocol and analyzed on an Agilent 1200 series LC and Agilent 6130 quadrupole ESI-MS.

[2] = target: Akt (Homo sapiens, UniProt P31749); assay: in vitro time-course kinase assay with Akt and Aktide biosensor (MALDI/TOF/TOF-MS readout); type: biochemical; settings: 15 nM kinase, 20 μM peptide, 100 μM ATP, 37° C., time points 0, 30, 60, 120 min; result after 2 hr
Akt, sequence (P31749 whole entry): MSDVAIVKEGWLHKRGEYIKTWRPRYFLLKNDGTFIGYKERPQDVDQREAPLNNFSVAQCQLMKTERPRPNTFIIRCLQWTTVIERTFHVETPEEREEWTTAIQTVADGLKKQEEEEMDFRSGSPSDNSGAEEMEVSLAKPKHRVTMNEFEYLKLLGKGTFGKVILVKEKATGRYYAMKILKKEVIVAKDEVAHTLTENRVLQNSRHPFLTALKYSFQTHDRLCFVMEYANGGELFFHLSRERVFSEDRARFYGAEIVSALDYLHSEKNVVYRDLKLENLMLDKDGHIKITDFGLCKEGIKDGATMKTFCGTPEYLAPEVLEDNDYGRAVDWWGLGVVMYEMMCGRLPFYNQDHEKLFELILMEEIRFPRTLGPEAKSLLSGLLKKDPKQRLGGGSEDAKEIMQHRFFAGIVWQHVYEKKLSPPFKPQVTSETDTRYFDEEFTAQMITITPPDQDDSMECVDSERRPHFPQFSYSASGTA
Experimental: FIG. 7. […] The abundance of the biosensor (labeled “Aktide”) and its phosphorylated version (labeled “phospho Aktide”) are shown over four different time points (0, 30, 60, 120 min) which represent the amount of time the peptide was incubated with the kinase.
The in vitro kinase assay was performed with Akt and Aktide biosensor (RRRRRSVDSHGGKbiotinGG (SEQ ID NO:11)). First, the kinase (15 nM final concentration) was pre-incubated in kinase reaction buffer (10 mM HEPES, 10 mM MgCl2, 0.125 ng/μL BSA, 100 μM adenosine triphosphate (ATP), pH 7.5) for 15 minutes. Then the substrate peptide, Aktide (20 μM final concentration), was added and the reaction was kept at 37° C. The reaction was monitored at different time points by removing 20 μL aliquots and quenching with 10 μL of 6 M urea at 0, 30, 60, and 120 minutes. The samples were then desalted with C18 zip tips according to the manufacturer's protocol and analyzed on an Applied Biosystems-Sciex 5800 MALDI/TOF/TOF-MS.

WHLQTWCGYGGKbiotinGG (WHLQTWCGYGGK(Biotin)GG) [candidate LKB1 biosensor peptide substrate with C-terminal -GGKbiotinGG tag]
phosphorylation of the peptide substrate by LKB1 [1]: partially phosphorylated

RRRRRSVDSHGGKbiotinGG (RRRRRSVDSHGGK(Biotin)GG) [artificial Akt substrate peptide biosensor with C-terminal -GGKbiotinGG tag]
phosphorylation of the peptide substrate by Akt (conversion to phosphorylated product) [2]: Nearly complete conversion to phosphorylated product
